In patent US20080199473A1 (CLEVELAND CLINIC FOUNDATION, published 2008):

Biological target: T1, 35S-labelled luciferase (UniProt P08659 1-550 = luciferase, 35S label (in-vitro-translated))
T1 construct: Negative control of the pull-down; also called luciferase (about 61 kDa)
Assay: GST pull-down, 35S-labelled luciferase

T1 sequence (P08659 whole entry): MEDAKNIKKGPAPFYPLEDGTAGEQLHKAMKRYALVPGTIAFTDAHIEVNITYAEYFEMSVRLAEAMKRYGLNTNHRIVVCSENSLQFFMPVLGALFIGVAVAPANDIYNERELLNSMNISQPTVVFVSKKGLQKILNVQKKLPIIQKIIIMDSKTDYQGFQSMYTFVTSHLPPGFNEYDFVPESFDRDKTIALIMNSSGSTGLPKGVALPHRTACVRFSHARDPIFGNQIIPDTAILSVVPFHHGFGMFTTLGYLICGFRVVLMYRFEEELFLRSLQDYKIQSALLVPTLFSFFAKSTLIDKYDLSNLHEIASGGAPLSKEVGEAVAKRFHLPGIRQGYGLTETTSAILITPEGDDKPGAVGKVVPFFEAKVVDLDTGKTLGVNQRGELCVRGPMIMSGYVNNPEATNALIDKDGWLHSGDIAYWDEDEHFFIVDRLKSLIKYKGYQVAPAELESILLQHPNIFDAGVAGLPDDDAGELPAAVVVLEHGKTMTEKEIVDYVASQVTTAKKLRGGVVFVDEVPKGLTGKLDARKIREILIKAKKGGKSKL

B1: GST-TWEAK protein (ligand, UniProt O43508 136-249, looked up)
chain: ARINSSSPLRYNRQIGEFIVTRAGLYYLYCQVHFDEGKAVYLKLDLLVDGVLALRCLEEFSATAASSLGPQLRLCQVSGLLALRPGSSLRIRTLPWAHLKAAPFLTYFGLFQVH
notes: also called GST-TWEAK fusion protein; not shown: glutathione S-transferase (GST) tag
- binding result: no binding
